From patent US20230038638A1, “COMPLEMENT FACTOR I-RELATED COMPOSITIONS AND METHODS” (published 2023)

Columns and labels:
human C4b (human) = target: T1, human C4b (human) (UniProt P0C0L5)
T1 sequence: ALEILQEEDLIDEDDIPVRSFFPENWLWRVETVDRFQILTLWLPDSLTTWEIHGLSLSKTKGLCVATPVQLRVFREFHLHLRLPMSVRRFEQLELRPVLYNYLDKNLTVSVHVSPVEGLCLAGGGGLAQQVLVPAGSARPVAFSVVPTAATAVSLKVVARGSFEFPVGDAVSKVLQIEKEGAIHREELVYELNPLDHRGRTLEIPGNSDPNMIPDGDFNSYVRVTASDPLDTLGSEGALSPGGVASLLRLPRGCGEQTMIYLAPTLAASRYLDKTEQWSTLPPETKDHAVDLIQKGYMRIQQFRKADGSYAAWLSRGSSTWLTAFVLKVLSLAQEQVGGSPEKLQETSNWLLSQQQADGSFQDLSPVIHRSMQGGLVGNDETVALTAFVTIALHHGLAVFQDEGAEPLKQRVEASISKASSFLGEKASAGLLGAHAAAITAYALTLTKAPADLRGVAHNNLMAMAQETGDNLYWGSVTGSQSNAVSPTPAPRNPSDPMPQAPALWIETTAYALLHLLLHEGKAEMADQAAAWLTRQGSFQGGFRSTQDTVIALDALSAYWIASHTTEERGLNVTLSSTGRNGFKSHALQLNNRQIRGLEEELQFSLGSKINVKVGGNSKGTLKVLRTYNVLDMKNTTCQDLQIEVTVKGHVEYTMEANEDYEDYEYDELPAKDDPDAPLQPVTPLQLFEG

[1] = target: soluble human C3b (human) (UniProt P01024)

Substance	C4b Screen Ref Fold (fold of CFI-HSA wild type) (human C4b (human))	iC3b Screen Ref Fold (fold of CFI-HSA wild type) [1]	further results
CFI-HSA variant S250A; D425R (enzyme)	–	–	C4b Screen Ref Fold (fold vs CFI-HSA wild type) (human C4b (human)): 0.14; iC3b Screen Ref Fold (fold vs CFI-HSA wild type) [1]: 1.01
CFI-HSA variant S507A (enzyme)	–	–	C4b Screen Ref Fold (fold vs CFI-HSA wild type) (human C4b (human)): 0.13; iC3b Screen Ref Fold (fold vs CFI-HSA wild type) [1]: 0.04
CFI-HSA variant S507A; GGSSGG (SEQ ID NO: 6); CR1(ccp1-3) (from UniProt P17927) (enzyme)	0.12	0.02	–
CFI-HSA variant S507A; GGSSGG (SEQ ID NO: 6); CR1(ccp15-17) (from UniProt P17927) (enzyme)	-0.01	-0.01	–
CFI-HSA variant S552G (enzyme)	1.08	0.58	–
CFI-HSA variant S552G; F559L (enzyme)	1.41	0.79	–
CFI-HSA variant S552G; F559L; P558S (enzyme)	0.93	0.44	–
CFI-HSA variant S552G; F559L; V565I (enzyme)	0.73	0.42	–
CFI-HSA variant S552G; F559L; V565I; P558S (enzyme)	1.8	0.49	–
CFI-HSA variant S552G; V565I (enzyme)	1.23	1.58	–
CFI-HSA variant S552G; V565I; P558S (enzyme)	0.89	1.32	–
CFI-HSA variant S552G; Y553H; F559L; P558S (enzyme)	2.33	0.18	–
CFI-HSA variant S552G; Y553H; F559L; V565I; P558S (enzyme)	2.44	0.62	–
CFI-HSA variant T495F; Y496L; D497E; S499G; I500K (enzyme)	–	–	C4b Screen Ref Fold (fold vs CFI-HSA wild type) (human C4b (human)): -0.04; iC3b Screen Ref Fold (fold vs CFI-HSA wild type) [1]: 0
CFI-HSA variant T495F; Y496L; D497E; S499G; I500K; G533A; K534Q; P535K; E536N; F537K (enzyme)	–	–	C4b Screen Ref Fold (fold vs CFI-HSA wild type) (human C4b (human)): -0.02; iC3b Screen Ref Fold (fold vs CFI-HSA wild type) [1]: 0.02
CFI-HSA variant V323A (enzyme)	–	–	C4b Screen Ref Fold (fold vs CFI-HSA wild type) (human C4b (human)): 0.01; iC3b Screen Ref Fold (fold vs CFI-HSA wild type) [1]: 0.05
CFI-HSA variant V565I (enzyme)	1.11	1.25	–
CFI-HSA variant V565I; P558S (enzyme)	1.41	0.85	–
CFI-HSA variant W381K (enzyme)	–	–	C4b Screen Ref Fold (fold vs CFI-HSA wild type) (human C4b (human)): 0; iC3b Screen Ref Fold (fold vs CFI-HSA wild type) [1]: 0.02
CFI-HSA variant Y20F; D425R (enzyme)	–	–	C4b Screen Ref Fold (fold vs CFI-HSA wild type) (human C4b (human)): 0.42; iC3b Screen Ref Fold (fold vs CFI-HSA wild type) [1]: 1.01
CFI-HSA variant Y20F; E38A; S250A; D425A (enzyme)	–	–	C4b Screen Ref Fold (fold vs CFI-HSA wild type) (human C4b (human)): 0.21; iC3b Screen Ref Fold (fold vs CFI-HSA wild type) [1]: 0.67
CFI-HSA variant Y403F; D425K; E457G; E461Q; K504Y; N531G (enzyme)	–	–	C4b Screen Ref Fold (fold relative to CFI-HSA wild type) (human C4b (human)): 3.11; iC3b Screen Ref Fold (fold relative to CFI-HSA wild type) [1]: 0.03
CFI-HSA variant Y403F; G406A; D425K; E457G; E461Q; K504Y; N531G (enzyme)	–	–	C4b Screen Ref Fold (fold relative to CFI-HSA wild type) (human C4b (human)): 3.16; iC3b Screen Ref Fold (fold relative to CFI-HSA wild type) [1]: 0.02

Substance	C4b Screen Ref Fold (fold of CFI-HSA wild type) (human C4b (human))	iC3b Screen Ref Fold (fold of CFI-HSA wild type) [1]	further results
CFI-HSA variant Y403F; G406A; D425K; E457G; E461Q; N531G (enzyme)	–	–	C4b Screen Ref Fold (fold relative to CFI-HSA wild type) (human C4b (human)): 4.12; iC3b Screen Ref Fold (fold relative to CFI-HSA wild type) [1]: 0.14
CFI-HSA variant Y408A (enzyme)	–	–	C4b Screen Ref Fold (fold vs CFI-HSA wild type) (human C4b (human)): 0.09; iC3b Screen Ref Fold (fold vs CFI-HSA wild type) [1]: 0.71
CFI-HSA variant Y408G (enzyme)	–	–	C4b Screen Ref Fold (fold vs CFI-HSA wild type) (human C4b (human)): 0.05; iC3b Screen Ref Fold (fold vs CFI-HSA wild type) [1]: 0.27
CFI-HSA variant Y408L; D425K (enzyme)	1.29	1.14	–
CFI-HSA variant Y408L; E457G; N531G; P535G; WT; GGSSGG (SEQ ID NO: 6); CR1(ccp15-17) (from UniProt P17927) (enzyme)	3.14	0.05	–
CFI-HSA variant Y408L; E457G; N531G; WT; GGSSGG (SEQ ID NO: 6); CR1(ccp15-17) (from UniProt P17927) (enzyme)	3.65	0.1	–
CFI-HSA variant Y408L; E457G; P535G; K534Q (enzyme)	1.43	0.53	–
CFI-HSA variant Y408L; E457G; P535G; N422K (enzyme)	1.07	1.39	–
CFI-HSA variant Y408L; E457G; P535G; P558S (enzyme)	1.08	0.7	–
CFI-HSA variant Y408L; E457G; P535G; WT; GGSSGG (SEQ ID NO: 6); CR1(ccp15-17) (from UniProt P17927) (enzyme)	1.99	0.23	–
CFI-HSA variant Y408L; E457G; WT; GGSSGG (SEQ ID NO: 6); CR1(ccp15-17) (from UniProt P17927) (enzyme)	3.18	0.12	–
CFI-HSA variant Y408L; K534Q (enzyme)	1.26	0.97	–
CFI-HSA variant Y408L; N422K (enzyme)	0.6	1.27	–
CFI-HSA variant Y408L; N531G; E416A (enzyme)	2.54	2.07	–
CFI-HSA variant Y408L; N531G; E457G; E461Q; R462K; F464Y; S507A (enzyme)	–	–	C4b Screen Ref Fold (fold vs CFI-HSA wild type) (human C4b (human)): 0.01; iC3b Screen Ref Fold (fold vs CFI-HSA wild type) [1]: 0
CFI-HSA variant Y408L; N531G; P535G (enzyme)	0.89	0.97	–
CFI-HSA variant Y408L; N531G; P535G; K534Q (enzyme)	1.47	1.2	–
CFI-HSA variant Y408L; N531G; P535G; P558S (enzyme)	1.02	1.28	–
CFI-HSA variant Y408L; N531G; P535G; WT; GGSSGG (SEQ ID NO: 6); CR1(ccp15-17) (from UniProt P17927) (enzyme)	3.6	0.05	–
CFI-HSA variant Y408L; N531G; WT; GGSSGG (SEQ ID NO: 6); CR1(ccp15-17) (from UniProt P17927) (enzyme)	4.17	0.22	–
CFI-HSA variant Y408L; P535G; K534Q (enzyme)	0.33	0.26	–
CFI-HSA variant Y408L; P535G; N422K (enzyme)	0.17	1.03	–
CFI-HSA variant Y408L; P535G; P558S (enzyme)	0.04	0.24	–
